Measured values taken from paper PMC7932109 (Science (New York, N.y.), 2021).
Changes are numbered by the printed parent chain.

B1: VHH V (VHH)
VHH: QVQLVETGGGLVQPGGSLRLSCAASGFTFSSYAMGWARQVPGKGLEWVSYIYSDGSTEYQDSVKGRFTISRDNAKSTVYLQMNSLKPEDTAVYYCATEGSLGGWGRDFGSWGQGTQVTVSS
notes: also called nanobody V; source: E. coli WK6, periplasmic extract, purified (Ni-NTA, desalting or gel filtration)
B2: VHH U (VHH)
VHH: QVQLVESGGGLVQPGGSLRLSCAASGFTLDYYAIGWFRQAPGKEREGVSCISSSGGSTHFADSVKGRFTISRDNAKNTVYLQMNSLIPEDTAVYYCAAQSGSYYWCGSDWHEYEYWGQGTQVTVSS
notes: also called nanobody U; source: E. coli WK6, periplasmic extract, purified (Ni-NTA, desalting or gel filtration)
B3: VHH W (VHH)
VHH: B2 VHH with G56D, F60Y, A61V, I87K, E114D, W116R
notes: also called nanobody W; source: E. coli WK6, periplasmic extract, purified (Ni-NTA, desalting or gel filtration)

Biological target: SARS-CoV-2 spike receptor binding domain (RBD), residues 319 to 541 (SARS-CoV-2, UniProt P0DTC2, biotinylated for SPR; DyLight 488 (NHS ester) for the ACE2-RBD binding assay; no label told for ELISA and crystals)
Experiment: SPR
Conditions: both partners purified

Row | Binder | Kd
1 | B1 | 9 nM
2 | B2 | 21 nM
3 | B3 | 22 nM
